Reference: patent US10925971B2, “Methods of treating PRLR positive breast cancer” (Regeneron Pharmaceuticals, Inc., priority 2016, dated 2021)

How the values were obtained:
[1] = molecular target: T1, native PRLR expressing T47D cells (Homo sapiens, UniProt P16471); assay: FACS cell surface binding
T1 construct: a native PRLR expressing cell line (T47D); endogenous in cells; host or cells: T47D
T1 sequence (P16471 25-622): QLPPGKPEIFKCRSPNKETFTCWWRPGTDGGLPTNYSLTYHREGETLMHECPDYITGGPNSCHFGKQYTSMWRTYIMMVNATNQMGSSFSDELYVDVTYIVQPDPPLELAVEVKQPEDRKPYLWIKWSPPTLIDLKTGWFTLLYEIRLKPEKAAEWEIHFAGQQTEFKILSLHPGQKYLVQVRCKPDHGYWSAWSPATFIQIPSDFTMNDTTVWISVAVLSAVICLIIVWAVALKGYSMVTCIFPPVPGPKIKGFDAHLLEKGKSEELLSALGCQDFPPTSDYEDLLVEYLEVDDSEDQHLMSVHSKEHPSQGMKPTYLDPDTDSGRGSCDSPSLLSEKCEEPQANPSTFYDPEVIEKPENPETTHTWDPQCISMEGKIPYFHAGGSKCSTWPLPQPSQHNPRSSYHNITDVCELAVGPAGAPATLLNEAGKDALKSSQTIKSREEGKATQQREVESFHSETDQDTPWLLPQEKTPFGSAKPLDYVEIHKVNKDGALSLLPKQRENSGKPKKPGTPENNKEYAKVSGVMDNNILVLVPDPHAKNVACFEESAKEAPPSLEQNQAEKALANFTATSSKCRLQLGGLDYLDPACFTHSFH
Summary of the method: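 Flow cytometry on native PRLR-expressing T47D cells, alongside PRLR-overexpressing and parental HEK293 lines. Cells (1×10^5) incubated with antibody at 10 μg/ml, 30 min on ice, then PE anti-human secondary; binding reported as MFI fold over isotype control.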

[2] = molecular target: T2, dimeric human PRLR (hPRLR.mFc; SEQ ID NO:402) (Homo sapiens, UniProt P16471); assay: Surface plasmon resonance (Biacore T200), antibody-capture format; format: binding; details: analyte hPRLR.mFc
T2 construct: dimeric (hPRLR.mFc)
Summary of the method: (§1)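 Antibodies (human IgG1 Fc) captured on an anti-human Fc sensor surface; soluble monomeric (.mmh) or dimeric (.mFc) PRLR injected as analyte. ka and kd obtained by fitting to a 1:1 binding model.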

[3] = molecular target: T3, monomeric human PRLR (hPRLR.mmh; SEQ ID NO:401) (Homo sapiens, UniProt P16471); assay: as above; format: binding; details: analyte hPRLR.mmh
T3 construct: soluble monomeric (hPRLR.mmh); mmh (myc-myc-hexahistidine) (C)
Summary of the method: as §1

[4] = test system: Macaca fascicularis PRLR (mfPRLR.mmh; SEQ ID NO:403); assay: as above; format: binding; details: analyte mfPRLR.mmh
Summary of the method: as §1

PC3/PRLR tumors = assay: PC3/PRLR xenograft, tumor size and tumor growth inhibition; format: in vivo, SCID mice; details: for Final Tumor size mm^3 (mean ± SEM) / Average Tumor Growth Inhibition (%): SCID mice
Summary of the method: (§2)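 MCF7/PRLR cells in mammary fat pad of female NCr nude mice, PC3/PRLR in flank of male SCID, T47D #11 in flank of female CB17 SCID, all with estrogen pellets.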

MCF7/PRLR tumors = assay: MCF7/PRLR breast cancer xenograft, tumor size and tumor growth inhibition; format: in vivo, NCr nude mice
Summary of the method: as §2

[5] = PC3/PRLR tumors TRIAL #1, multi-dose 15 mg/kg, Day 63
[6] = PC3/PRLR tumors TRIAL #2, multi-dose 5 mg/kg, Day 55
[7] = PC3/PRLR tumors TRIAL #2, multi-dose 15 mg/kg, Day 55
[8] = MCF7/PRLR tumors TRIAL #1, NCr Nude mice, multi-dose 5 mg/kg, Day 52
[9] = MCF7/PRLR tumors TRIAL #1, NCr Nude mice, multi-dose 15 mg/kg, Day 52
[10] = MCF7/PRLR tumors TRIAL #2, NCr Nude mice, multi-dose 5 mg/kg, Day 63
[11] = MCF7/PRLR tumors TRIAL #2, NCr Nude mice, multi-dose 15 mg/kg, Day 63

T2 sequence (P16471 with tags, fused parts or gaps): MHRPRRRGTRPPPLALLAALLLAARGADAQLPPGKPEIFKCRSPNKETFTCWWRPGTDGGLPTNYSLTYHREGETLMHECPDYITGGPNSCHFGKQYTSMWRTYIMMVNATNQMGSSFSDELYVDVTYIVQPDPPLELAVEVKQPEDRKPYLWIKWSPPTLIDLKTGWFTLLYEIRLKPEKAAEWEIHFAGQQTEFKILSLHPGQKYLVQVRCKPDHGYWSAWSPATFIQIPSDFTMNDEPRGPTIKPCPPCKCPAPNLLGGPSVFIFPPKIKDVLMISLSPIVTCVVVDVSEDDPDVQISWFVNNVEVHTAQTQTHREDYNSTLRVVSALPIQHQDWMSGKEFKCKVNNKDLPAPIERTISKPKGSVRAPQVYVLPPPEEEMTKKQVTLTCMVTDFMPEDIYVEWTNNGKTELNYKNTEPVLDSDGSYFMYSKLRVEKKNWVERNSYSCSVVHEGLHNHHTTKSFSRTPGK
T3 sequence (P16471 with tags, fused parts or gaps): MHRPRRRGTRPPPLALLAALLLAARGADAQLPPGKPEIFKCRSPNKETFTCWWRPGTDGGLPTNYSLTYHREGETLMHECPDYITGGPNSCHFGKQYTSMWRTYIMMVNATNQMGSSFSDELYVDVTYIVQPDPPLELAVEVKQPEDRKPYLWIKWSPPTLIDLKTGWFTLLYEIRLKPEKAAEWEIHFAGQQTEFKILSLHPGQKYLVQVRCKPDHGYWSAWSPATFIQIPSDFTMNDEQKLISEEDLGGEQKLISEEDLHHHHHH
Macaca fascicularis PRLR (mfPRLR.mmh; SEQ ID NO:403), sequence (as listed by the source): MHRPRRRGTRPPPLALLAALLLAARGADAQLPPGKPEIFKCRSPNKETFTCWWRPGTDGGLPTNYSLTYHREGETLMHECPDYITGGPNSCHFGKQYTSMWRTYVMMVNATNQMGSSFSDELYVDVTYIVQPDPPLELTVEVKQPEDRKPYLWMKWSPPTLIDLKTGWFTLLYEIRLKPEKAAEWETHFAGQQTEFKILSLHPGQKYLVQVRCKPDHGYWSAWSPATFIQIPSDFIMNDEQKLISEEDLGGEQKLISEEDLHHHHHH

Molecule | FACS Cell Binding [1] | ka ([2]; 25° C.) | kd ([2]; 25° C.) | ka ([2]; 37° C.) | kd ([2]; 37° C.) | ka ([3]; 25° C.) | kd ([3]; 25° C.) | ka ([3]; 37° C.) | kd ([3]; 37° C.) | ka ([4]; 25° C.) | kd ([4]; 25° C.) | ka ([4]; 37° C.) | kd ([4]; 37° C.) | Average Tumor Growth Inhibition (%) (PC3/PRLR tumors; [5]) | Final Tumor size mm^3 (mean ± SEM) (PC3/PRLR tumors; [5]) | Average Tumor Growth Inhibition (%) (PC3/PRLR tumors; [7]) | Final Tumor size mm^3 (mean ± SEM) (PC3/PRLR tumors; [7]) | Average Tumor Growth Inhibition (%) (MCF7/PRLR tumors; [9]) | Final Tumor size mm^3 (mean ± SEM) (MCF7/PRLR tumors; [9]) | Average Tumor Growth Inhibition (%) (MCF7/PRLR tumors; [11]) | also measured
H1H6774P: fully human anti-PRLR antibody, human IgG1 Fc; HCVR/LCVR SEQ ID NOs 34/42 (antibody, V domains shown) VH: EVQLVESGGGLAQPGGSLRLSCVASGFTFSTYWMSWVRQAPGKGLDWVGNIKQDGSEQNYVDSVRGRFTISRDNAKNSLFLQMNSLRAEDTGVYYCATLLTKGDYWGQGTLVTVSS VL: DIQMTQSPSSLSASVGDSVTITCRASQDISNYLDWFQQKPGKAPKSLIYAASILQGGVPSRFSGSGYGTDFTLTISSLQPEDFATYYCRQYKTYPFTFGPGTKVDIK | 39 Fold Above Background | 798000 M/s | 8.94e-05 s⁻¹ | 1.41e+06 M/s | 0.000194 s⁻¹ | 715000 M/s | 0.000818 s⁻¹ | 1.07e+06 M/s | 0.00317 s⁻¹ | 495000 M/s | 0.000875 s⁻¹ | 723000 M/s | 0.00361 s⁻¹ |  |  |  |  |  |  |  | 
H1H6958N2-DM1: anti-PRLR antibody H1H6958N2 conjugated to the maytansinoid DM1 through an SMCC linker (conjugate) VH: QVQLVESGGGVVQPGRSLRLSCGASGFTFRNYGMQWVRQGPGKGLEWVTLISFDGNDKYYADSVKGRFTISRDNSKNTLFLQMNSLRTEDTAVYYCARGGDFDYWGQGTLVTVSS VL: DIQMTQSPSSLSASVGDRVTITCRASQDIRKDLGWYQQKPGKAPKRLIYAASSLHSGVPSRFSGSGSGTEFTLTISSLQPEDFATYYCLQHNSYPMYTFGQGTKLEIK |  |  |  |  |  |  |  |  |  |  |  |  |  | 46% | 808 ± 83 mm^3 | 94% | 230 ± 22 mm^3 | 133% | 0 ± 0 mm^3 | 137% | Final Tumor size mm^3 (mean ± SEM) (PC3/PRLR tumors; PC3/PRLR tumors TRIAL #1, multi-dose 5 mg/kg, Day 63): 1247 ± 171 mm^3; Average Tumor Growth Inhibition (%) (PC3/PRLR tumors; [6]): 61%; Final Tumor size mm^3 (mean ± SEM) (PC3/PRLR tumors; [6]): 566 ± 63 mm^3; PC3/PRLR tumor growth (PC3/PRLR tumors; multi-dose, especially at 15 mg/kg): demonstrated inhibition of tumor growth; Average Tumor Growth Inhibition (%) (MCF7/PRLR tumors; [8]): 128%; Final Tumor size mm^3 (mean ± SEM) (MCF7/PRLR tumors; [8]): 51 ± 33 mm^3; Average Tumor Growth Inhibition (%) (MCF7/PRLR tumors; [10]): 116%; Final Tumor size mm^3 (mean ± SEM) (MCF7/PRLR tumors; [10]): 117 ± 10 mm^3; Final Tumor size mm^3 (mean ± SEM) (MCF7/PRLR tumors; [11]): 0 ± 0 mm^3; MCF7/PRLR tumor growth (MCF7/PRLR tumors; first multi-dose trial, 5 and 15 mg/kg): potently inhibited MCF7/PRLR tumor growth; tumor volume relative to vehicle control tumors (MCF7/PRLR tumors; single dose 1 mg/kg): significant decrease in tumor volume
H1H6958N2: anti-PRLR antibody, receptor blocking, human IgG1 Fc form of H2M6958N2 of Table 1; HCVR/LCVR SEQ ID NOs 290/298 (antibody, V domains shown) VH: QVQLVESGGGVVQPGRSLRLSCGASGFTFRNYGMQWVRQGPGKGLEWVTLISFDGNDKYYADSVKGRFTISRDNSKNTLFLQMNSLRTEDTAVYYCARGGDFDYWGQGTLVTVSS VL: DIQMTQSPSSLSASVGDRVTITCRASQDIRKDLGWYQQKPGKAPKRLIYAASSLHSGVPSRFSGSGSGTEFTLTISSLQPEDFATYYCLQHNSYPMYTFGQGTKLEIK | 37 Fold Above Background | 422000 M/s | 3.66e-05 s⁻¹ | 829000 M/s | 0.000139 s⁻¹ | 233000 M/s | 0.000272 s⁻¹ | 413000 M/s | 0.00131 s⁻¹ | 195000 M/s | 0.00028 s⁻¹ | 328000 M/s | 0.00134 s⁻¹ | −19% | 1507 ± 106 mm^3 | 28% | 917 ± 253 mm^3 | 74% | 483 ± 46 mm^3 | 17% | Final Tumor size mm^3 (mean ± SEM) (MCF7/PRLR tumors; [11]): 766 ± 128 mm^3; Final Tumor size mm^3 (mean ± SEM) (MCF7/PRLR tumors; MCF7/PRLR tumors, single dose 15 mg/kg, Day 55): 703 ± 160 mm^3
H1H6795P: fully human anti-PRLR antibody, human IgG1 Fc; HCVR/LCVR SEQ ID NOs 162/170 (antibody, V domains shown) VH: QVQLVQSGAEVKKPGASVKVSCKASGYTFGTSGITWVRQAPGQGLEWMGWSSAYNGKTDYAQKFQDRVTMTTDTSTTTGYMEMRSLTSDDTAVYYCTTVVRRPFDFWGQGTLVTVSS VL: DIQMTQSPSSLSASVGDRVTITCRASQDINNFLAWFQQKPGKAPKSLIYAASSLQSGVPSKFSGGGSGTDFALTISSLQPEDFATYYCQQYSSYPITFGQGTRLEIK | 34 Fold Above Background | 1.54e+06 M/s | 8.41e-05 s⁻¹ | 1.94e+06 M/s | 7.77e-05 s⁻¹ | 1.17e+06 M/s | 0.00177 s⁻¹ | 1.36e+06 M/s | 0.0052 s⁻¹ | 844000 M/s | 0.00197 s⁻¹ | 973000 M/s | 0.00599 s⁻¹ |  |  |  |  |  |  |  | 
H1H6975N: anti-PRLR antibody, human IgG1 Fc form of H2M6975N of Table 1; HCVR/LCVR SEQ ID NOs 370/378 (antibody, V domains shown, human IgG1 Fc) VH: EVHLVESGGGLVQPGGSLRLSCAASGFTFSSYEMNWVRQTPGKGLEWISHISSRSVIIYYADSVKGRFTISRDNAKNSLFLQMNSLRAEDTAVYFCAGITIFGIPEYWGQGTLVTVSS VL: EIVLTQSPATLSLSPGERATLSCRASQSVSSYFAWYQQKPGQAPRLLIYDASSRATGIPTRFSGSGSGTDFTLTISSLEPEDFAVYYCQQRSSWPITFGQGTRLEIK | 46 Fold Above Background | 287000 M/s | 1.97e-05 s⁻¹ | 386000 M/s | 7.09e-05 s⁻¹ | 150000 M/s | 7.35e-05 s⁻¹ | 211000 M/s | 0.000273 s⁻¹ | 115000 M/s | 0.000131 s⁻¹ | 140000 M/s | 0.000317 s⁻¹ | 12% | 1185 ± 97 mm^3 |  |  | 51% | 659 ± 144 mm^3 |  | 
H1H6797P: fully human anti-PRLR antibody, human IgG1 Fc; HCVR/LCVR SEQ ID NOs 178/186 (antibody, V domains shown) VH: EVQLVESGGGLVQPGGSLRLSCIVSGFTFSGSWMSWVRQLPGKGLEWVANIKEDGSDSYYVDSVEGRFTISRDNAKSSLYLQMNSLRVDDTAVYFCARARTVPLHYWGQGTLVTVSS VL: DIQMTQSPSTLSASVGDRVTITCRASQSINIWLAWYQQKPGKAPKLLIYRASYLESGVPSSFAGGGSGTEFTLTISSLQPDDFGTYYCQHYNSYPFTFGQGTKLEIK | 38 Fold Above Background | 982000 M/s | 0.000119 s⁻¹ | 1.8e+06 M/s | 0.000125 s⁻¹ | 1.13e+06 M/s | 0.00196 s⁻¹ | 1.29e+06 M/s | 0.00822 s⁻¹ | 670000 M/s | 0.00209 s⁻¹ | 914000 M/s | 0.00906 s⁻¹ |  |  |  |  |  |  |  | 
